Values of other authors in publication PMC11409674, “Raffinocyclicin is a novel plasmid-encoded circular bacteriocin produced by Lactococcus raffinolactis with broad-spectrum activity against many gram-positive food pathogens” (Applied and environmental microbiology, 2024).

Tested on: proteases
Design: method as in 4 sources, ref 33 = [33]; PMID 21948835; doi:10.1128/AEM.06348-11; 33 Masuda Y Ono H Kitagawa H Ito H Mu F Sawa N Zendo T Sonomoto K Identification and characterization of leucocyclicin Q, a novel cyclic bacteriocin produced by Leuconostoc mesenteroides TK41401 Appl ||| ref 27 = [27]; PMID 21057028; doi:10.1128/AEM.01173-10; 27 Borrero J Brede DA Skaugen M Diep DB Herranz C Nes IF Cintas LM Hernández PE Characterization of garvicin ML, a novel circular bacteriocin produced by Lactococcus garvieae DCC43, isolated from mall ||| ref 30 = [30]; PMID 29177092; doi:10.1099/mgen.0.000134; 30 van Heel AJ Montalban-Lopez M Oliveau Q Kuipers OP Genome-guided identification of novel head-to-tail cyclized antimicrobial peptides, exemplified by the discovery of pumilarin Microb Genom 2017 3 ||| ref 29 = [29]; PMID 18552180; doi:10.1128/AEM.00817-08; 29 Martin-Visscher LA van Belkum MJ Garneau-Tsodikova S Whittal RM Zheng J McMullen LM Vederas JC Isolation and characterization of carnocyclin A, a novel circular bacteriocin produced by Carnobacteri
Conditions: cited from earlier work

## garvicin ML
  sensitivity to proteolytic activity: resistant

## pumilarin
  sensitivity to proteolytic activity: low-sensitivity profile

## leucocyclicin Q
  sensitivity to proteolytic activity: resistant
